What is called EC50 is the concentration at which the effect is half-maximal. Lower therefore signals greater potency.

Assay [1] has as its target T1, Human LILRB1 on transiently transfected HEK293-6E cells (human, UniProt Q8NHL6 24-650).
T1 construct: whole, on cells; also called hLILRB1
In words: flow cytometry, transiently transfected HEK293-6E cells. The protocol: (§1) To determine that the anti-LILRB2 antibodies specifically bind to LILRB2 and not other LILRB and LILRA family members, a cross-reactivity assay was performed. Cross-reactivity of the LILRB2 antibodies to other LILRB proteins was assessed by antibody binding to transiently transfected HEK293-6E cells, measured by flow cytometry. Binding was evaluated to HEK293-6E cells transiently transfected with human LILRB-1, -2, -3, -4, and 5 plasmids (Origene, Nos. RC219949, RC217935, RC211228, RC220932, RC206516) or to cells transiently transfected with human LILRA-1, -2, -4, -5, and -6 plasmids (Origene, Nos. RC210808, RC205626, RC220452, RC212310 RC212965). […] Murine primary antibodies to LILRA and LILRB targets and corresponding isotype controls were used to confirm specific binding of all targets tested (R&D Systems) while an AF647 F(ab′)₂ fragment goat anti-mouse antibody (Jackson ImmunoResearch, No. 115-606-062) was used for the detection of bound positive control antibodies. No binding of B2A-IgG4 or B2A-IgG1 to LILRB-1, -3, -4, or -5 was observed, and no binding of either antibody to LILRA-1, -2, -4, -5, or -6 was observed, confirming specificity of these antibodies.
Background: In flow cytometry, cells or beads pass a laser one at a time.

Assay [2] has as its target T2, Human LILRB2 on transiently transfected HEK293-6E cells (human, UniProt Q8N423 22-597).
T2 construct: whole, on cells; also called hLILRB2
The description is as above. The protocol:
as §1
(§2) Select humanized variant antibodies were tested for their ability to bind other LILRB or LILRA family members, using the method and commercially available positive control antibodies of Example 5.

Assay [3] concerns the target T3, Human LILRB5 on transiently transfected HEK293-6E cells (human, UniProt O75023 24-590).
T3 construct: whole, on cells; also called hLILRB5
The description is as above. The protocol:
as §1, §2

The target of assay [4] is T4, Human LILRB3 on transiently transfected HEK293-6E cells (human, UniProt O75022 24-631).
T4 construct: whole, on cells; also called hLILRB3
The description is as above. The protocol:
as §1, §2

Assay [5] has as its target T5, Human LILRA1 on transiently transfected HEK293-6E cells (human, UniProt O75019 17-489).
T5 construct: whole, on cells; also called hLILRA1
Described as above. The protocol: as §1, §2

Assay [6] addresses T1, Human LILRB1 on transiently transfected …. Described as above. The protocol: as §1, §2
The source holds these as a separate data set.

For assay [7], the target named is T6, Human LILRA5 on transiently transfected HEK293-6E cells (human, UniProt A6NI73 42-299).
T6 construct: whole, on cells; also called hLILRA5
T6 sequence (A6NI73 42-299): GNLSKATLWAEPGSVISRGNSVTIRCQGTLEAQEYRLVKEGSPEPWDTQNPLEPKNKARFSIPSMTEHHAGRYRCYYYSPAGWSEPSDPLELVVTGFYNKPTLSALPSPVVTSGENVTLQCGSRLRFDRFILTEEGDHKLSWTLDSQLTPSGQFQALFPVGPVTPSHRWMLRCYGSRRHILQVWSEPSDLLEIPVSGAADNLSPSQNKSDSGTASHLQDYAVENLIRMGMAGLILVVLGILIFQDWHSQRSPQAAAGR
The assay is described as above. The protocol: as §1, §2

For assay [8], the target named is T7, Human LILRA6 on transiently transfected HEK293-6E cells (human, UniProt Q6PI73 24-481).
T7 construct: whole, on cells; also called hLILRA6
T7 sequence (Q6PI73 24-481): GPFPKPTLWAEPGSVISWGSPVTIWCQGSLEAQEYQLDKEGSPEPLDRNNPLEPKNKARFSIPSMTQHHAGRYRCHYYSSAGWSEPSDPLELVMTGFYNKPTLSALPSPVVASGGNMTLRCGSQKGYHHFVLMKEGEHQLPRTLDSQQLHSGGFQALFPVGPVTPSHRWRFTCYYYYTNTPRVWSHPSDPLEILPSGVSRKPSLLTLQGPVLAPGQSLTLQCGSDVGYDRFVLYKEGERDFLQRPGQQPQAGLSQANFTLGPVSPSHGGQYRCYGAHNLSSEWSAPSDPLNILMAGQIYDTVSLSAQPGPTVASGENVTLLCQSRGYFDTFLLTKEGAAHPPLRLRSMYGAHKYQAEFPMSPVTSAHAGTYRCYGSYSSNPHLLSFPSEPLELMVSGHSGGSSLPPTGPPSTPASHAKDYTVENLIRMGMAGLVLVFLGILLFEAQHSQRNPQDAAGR
Described as above. The protocol:
as §1, §2

For assay [9], the target named is T8, Human LILRA2 on transiently transfected HEK293-6E cells (human, UniProt Q8N149 24-483).
T8 construct: whole, on cells; also called hLILRA2
T8 sequence (Q8N149 24-483): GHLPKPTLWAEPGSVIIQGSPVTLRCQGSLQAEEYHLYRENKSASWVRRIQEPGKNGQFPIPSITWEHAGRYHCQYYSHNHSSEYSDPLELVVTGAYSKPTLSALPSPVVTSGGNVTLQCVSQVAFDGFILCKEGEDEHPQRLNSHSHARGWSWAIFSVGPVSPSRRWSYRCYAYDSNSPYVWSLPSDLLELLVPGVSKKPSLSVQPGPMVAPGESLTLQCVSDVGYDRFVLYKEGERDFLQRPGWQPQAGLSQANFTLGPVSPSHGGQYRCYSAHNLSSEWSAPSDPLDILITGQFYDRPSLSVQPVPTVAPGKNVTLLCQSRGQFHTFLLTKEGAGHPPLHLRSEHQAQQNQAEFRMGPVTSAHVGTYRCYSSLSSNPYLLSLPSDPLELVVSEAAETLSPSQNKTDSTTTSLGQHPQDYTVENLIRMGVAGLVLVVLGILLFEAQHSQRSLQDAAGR
The assay is described as above. The protocol: as §1, §2

Assay [10] concerns the target T9, Human LILRB4 on transiently transfected HEK293-6E cells (human, UniProt Q8NHJ6 22-448).
T9 construct: whole, on cells; also called hLILRB4
The description is as above. The protocol: as §1, §2

Assay [11] deals with T10, Human LILRB2 on primary human myeloid cells (human, UniProt Q8N423 22-597).
T10 construct: whole, on cells; the cell type is named under assay; also called LILRB2 on monocytes, M0 and M2c macrophages, myeloid dendritic cells, neutrophils
T10 sequence (Q8N423 22-597): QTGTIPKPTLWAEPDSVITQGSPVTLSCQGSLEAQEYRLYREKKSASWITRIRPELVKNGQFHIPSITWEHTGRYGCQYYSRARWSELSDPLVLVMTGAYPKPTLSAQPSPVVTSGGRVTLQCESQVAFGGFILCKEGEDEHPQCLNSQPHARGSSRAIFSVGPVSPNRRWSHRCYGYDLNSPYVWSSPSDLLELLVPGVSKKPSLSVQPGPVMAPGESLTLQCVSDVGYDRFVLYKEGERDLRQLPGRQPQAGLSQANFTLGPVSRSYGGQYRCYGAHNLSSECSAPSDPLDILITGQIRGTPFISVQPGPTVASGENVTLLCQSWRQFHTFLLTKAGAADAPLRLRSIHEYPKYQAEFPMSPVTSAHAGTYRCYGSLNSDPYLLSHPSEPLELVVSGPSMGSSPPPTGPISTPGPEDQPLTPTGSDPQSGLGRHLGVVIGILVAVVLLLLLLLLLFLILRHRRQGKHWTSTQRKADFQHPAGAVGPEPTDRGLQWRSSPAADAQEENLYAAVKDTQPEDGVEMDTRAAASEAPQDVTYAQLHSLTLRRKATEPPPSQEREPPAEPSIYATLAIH
In words: flow cytometry, AF647-conjugated antibody on human monocytes (15 subjects), average. The protocol:
(§3) Anti-LILRB2 antibodies were evaluated for their ability to bind myeloid cell subsets expressing LILRB2, including monocytes, M0 macrophages, and M2c macrophages. M2c macrophages are used as a surrogate for tumor-associated macrophages, a suppressive macrophage commonly found in the tumor microenvironment. Frozen monocytes were removed from storage in vapor phase liquid nitrogen and thawed by gentle swirling in a water bath at 37° C., then resuspended in X-VIVO™ 15 media with 10% FBS. PBMC were placed in a 15 mL conical tube and centrifuged at 300×g for 5 minutes, then supernatant was removed. Cells were resuspended in Assay Medium (X-VIVO™ 15+10% FBS) at a cell density of 2.5×10⁵ cells/mL. Cells were plated into 96-well flat bottom plates at 100 μL/well (25K cells/well). M0 and M2c macrophages were generated as described in Example 10 and collected from flasks by incubation for 15 min at RT in Macrophage Detachment Solution DXF, then removed from the flask into X-VIVO™ 15 medium. Following centrifugation, the cells were resuspended in FACS Blocking Buffer D (FACS Buffer+10% FBS+0.5 mg/mL human IgG1) then incubated at 4° C. for 30 minutes. […]

Assay [12] deals with T10, Human LILRB2 on primary human myeloid …. The experiment in a line: flow cytometry, AF647-conjugated antibody on human M0 macrophages (7 subjects), average. The protocol: as §3

T1 sequence (Q8NHL6 24-650): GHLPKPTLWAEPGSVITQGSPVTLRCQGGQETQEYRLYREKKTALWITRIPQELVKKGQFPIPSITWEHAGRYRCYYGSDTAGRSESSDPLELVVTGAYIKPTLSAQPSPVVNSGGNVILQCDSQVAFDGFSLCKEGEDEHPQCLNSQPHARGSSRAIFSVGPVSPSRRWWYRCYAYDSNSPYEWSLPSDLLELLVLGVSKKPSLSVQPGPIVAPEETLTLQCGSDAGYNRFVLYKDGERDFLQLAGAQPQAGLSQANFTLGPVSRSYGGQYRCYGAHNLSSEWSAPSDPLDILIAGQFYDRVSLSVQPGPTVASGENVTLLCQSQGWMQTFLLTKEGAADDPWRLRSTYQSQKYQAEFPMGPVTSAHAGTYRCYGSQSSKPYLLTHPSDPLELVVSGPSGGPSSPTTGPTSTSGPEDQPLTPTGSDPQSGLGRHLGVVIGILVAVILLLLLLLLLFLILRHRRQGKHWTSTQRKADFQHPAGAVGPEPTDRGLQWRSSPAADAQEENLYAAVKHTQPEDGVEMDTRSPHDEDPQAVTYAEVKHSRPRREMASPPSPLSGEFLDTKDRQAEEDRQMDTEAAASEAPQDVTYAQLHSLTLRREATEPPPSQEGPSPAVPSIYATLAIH
T3 sequence (O75023 24-590): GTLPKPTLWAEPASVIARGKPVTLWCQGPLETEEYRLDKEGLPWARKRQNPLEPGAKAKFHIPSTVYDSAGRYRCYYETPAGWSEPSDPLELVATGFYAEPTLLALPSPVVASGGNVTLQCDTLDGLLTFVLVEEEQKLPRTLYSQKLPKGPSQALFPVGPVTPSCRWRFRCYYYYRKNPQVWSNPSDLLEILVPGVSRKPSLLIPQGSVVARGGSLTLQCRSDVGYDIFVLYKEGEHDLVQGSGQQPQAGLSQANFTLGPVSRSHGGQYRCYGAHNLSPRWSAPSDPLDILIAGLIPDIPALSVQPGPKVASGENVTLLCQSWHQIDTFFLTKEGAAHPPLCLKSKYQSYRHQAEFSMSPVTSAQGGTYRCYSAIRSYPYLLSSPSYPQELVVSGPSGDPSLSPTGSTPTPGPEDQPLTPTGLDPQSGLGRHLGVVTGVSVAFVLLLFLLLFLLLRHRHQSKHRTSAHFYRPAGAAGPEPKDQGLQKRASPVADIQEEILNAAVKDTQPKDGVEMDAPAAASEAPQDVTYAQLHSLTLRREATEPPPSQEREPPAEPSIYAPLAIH
T2 sequence (Q8N423 22-597): as the sequence (Q8N423 22-597) above
T5 sequence (O75019 17-489): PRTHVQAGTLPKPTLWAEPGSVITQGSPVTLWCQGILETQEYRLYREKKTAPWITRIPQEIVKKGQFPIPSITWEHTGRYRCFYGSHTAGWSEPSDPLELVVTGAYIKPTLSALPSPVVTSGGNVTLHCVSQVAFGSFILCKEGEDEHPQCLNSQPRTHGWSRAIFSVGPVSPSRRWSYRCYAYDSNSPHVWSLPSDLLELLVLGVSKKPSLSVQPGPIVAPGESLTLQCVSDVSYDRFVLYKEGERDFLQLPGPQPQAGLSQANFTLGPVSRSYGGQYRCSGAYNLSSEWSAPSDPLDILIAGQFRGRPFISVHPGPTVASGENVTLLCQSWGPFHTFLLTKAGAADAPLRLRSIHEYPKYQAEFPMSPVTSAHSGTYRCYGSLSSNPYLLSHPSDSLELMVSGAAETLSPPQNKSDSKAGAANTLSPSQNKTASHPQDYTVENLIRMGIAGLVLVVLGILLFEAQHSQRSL

B1: B2A-IgG1 (antibody)
heavy: not shown
light: DVVMTQTPSSVSAALGGTVTIKCQASQSIGSNLAWYQLKPGQRPKLLIYAAATLASGGSSRFKGSGSGTDFTLTISDLECADAATYYCQSYVSGSSDVAFGGGTEVVVKRTVAAPSVFIFPPSDEQLKSGTASVVCLLNNFYPREAKVQWKVDNALQSGNSQESVTEQDSKDSTYSLSSTLTLSKADYEKHKVYACEVTHQGLSSPVTKSFNRGEC
notes: Rabbit variable regions on human IgG1 / kappa constant regions; AF647-conjugated in some flow assays; also called B2A-IgG1 chimera; anti-LILRB2 B2A-IgG1
With B1, the MFI in assay [1] is 43 MFI. Further, the “Bmax (MFI)” value in [2] is 11300 MFI; in assay [3] it was 147 MFI; in assay [4], 163 MFI; in assay [5] it was 837 MFI; in assay [6], 41.9 MFI; in assay [7] it was 124 MFI. Further, the results for the “Bmax (MFI)” value in assay [8], in [9] and in assay [10] were 211 MFI, 40.4 MFI and 41.4 MFI, respectively.

B2: B2H1-55 (antibody, V domains shown)
VH: EVQLLESGGGLVQPGTSLTLSCAASGFSLSTYAMSWVRQAPGKGLEWIGWIYNDGSTYYAAWAKGRFTISKDTSKTTLYLQITSLRAEDTATYFCAREGDYIGYFNIWGQGTLVTVSS
VL: DVVMTQTPSSVSAALGGTVTIKCQASQSIGSNLAWYQLKPGQRPKLLIYAAATLASGGSSRFKGSGSGTDFTLTISSLEPADAATYYCQSYVSGSSDVAFGGGTEVVVK
notes: Humanized variant, human IgG1 / kappa; also called humanized variant B2H1-55; humanized LILRB2 antibody B2H1-55
Regarding B2, the EC50 in assay [11] was determined as 0.0356 µg/mL; in assay [12], 0.0748 µg/mL. Moreover, the “Bmax (MFI)” value in assay [2] amounted to 11000 MFI; in assay [3], 138 MFI; in [4], 154 MFI; in assay [5], 783 MFI; in [6] it was 41.4 MFI; in [7] it was 129 MFI. The figures for the “Bmax (MFI)” value in assay [8], in assay [9] and in [10] were 214 MFI, 37.7 MFI and 40.3 MFI, respectively.

The values are drawn from patent US20240132589A1 (ONCORESPONSE, published 2024).
